In patent US11045520B2, “Compositions and methods for topical delivery of pharmaceutical agents” (priority 2016, dated 2021):

Tests used:
human skin explants [1] = conditions: cited from earlier work
[2] = tested on: human skin explants or xenograted human skin; assay: Confocal imaging of fluorescent dye distribution in ETA-desquamated skin (Example 2); conditions: for skin permeability after removal of S.C. by ETA: ETA 100 μg/mL treated vs untreated skin
Description: Human skin samples were fixed in 10% formaldehyde overnight and then embedded in paraffin. Samples were cut using a microtome to a thickness of 6 μM and baked on slides for 1 hour in a dry heat incubator at 58° C. Nuclei and eosinophillic structures were visualized by hematoxylin and eosin staining, respectively. The hematoxylin stains nuclei blue and eosins stains eosinophillic structures different shades of red. Histological images were taken with an inverted microscope.
The skin was either subjected to no treatment or application of ETA at 100 μg/mL.
To image the distribution of each dye in the human skin, human skin specimens were collected at 6, 12, 18 and 24 hours. Ordinary skin with intact S.C. and desquamated skin using ETA (methods previously described) were used. Frozen sections of human skin specimens were cut using a microtome to a thickness of 7 μM and DAPI was used for counter staining. Skin imaging was carried out at room temperature using Nikon confocal microscope equipped with NIS-Elements AR 3.10 software.

[3] = tested on: skin epidermis and dermis; assay: Removal of S.C. by various methods and possible damage (FIG. 12)
Excerpt: FIGS. 12A (panel a-d) and 12B depict removal of S.C. by various methods and possible damage. […] Even more damage to the dermis and epidermis are seen in skin treated by dermabrasion (panel d). In FIG. 12A, single headed arrow points to the epidermis and double headed arrows show clefting between epidermis and dermis.
Fractional laser treatment lead to unavoidable heat damage on the side of the holds that each radiated beam made.

human skin = assay: Franz cell diffusion apparatus assay, ETA-treated vs control skin (Example 3); format: in vitro ADME; conditions: ETA-treated human skin compared to non-treated control, 24 hours
Description: Permeation experiments with Franz diffusion cells were performed using human skin. The Franz diffusion cells were made of glass with a contact area of 1.35 cm^2, consisting of a donor compartment and a receptor compartment. The skin was mounted between the cell compartments and 2 O-ring shaped glasses were used to position the skin epidermis side-up and dermis side-down. The two cell compartments were held together with a clamp. […] It was kept at 37° C. on a heated plate. After 30 minutes of equilibration of the skin with the receptor solution, 200 μl of the drug solution was applied in the donor compartment with a pipet. The donor compartment was then covered with parafilm to prevent evaporation of the solvent. The receptor solution was continuously stirred using a spinning bar magnet at 200 rpm. Receptor solution samples, 0.2 ml aliquots, were withdrawn through the sampling port of the receptor compartment at various time intervals. The cells were refilled with a same amount of receptor solution to keep the volume of receptor solution constant during the experiment. The experiments were run for 24 hours. The fluorescent intensities collected from receptor compartments from normal and desquamated skin were compared over time using a spectrophotometer. […]

[4] = tested on: Stratum Corneum of human skin explants; assay: ETA desquamation of Stratum Corneum on human skin explants, H&E histology (Example 1)
Description: ETA was mixed with 10 mM PIPES at pH 6.5, 10 mM HEPES at pH 7.4, or 10 mM Tris at pH 8.0, at concentrations ranging from 25-1000 μg/mL. Each condition was also done separately as controls. These solutions were applied to human skin explants, obtained and prepared as follows. Human skin specimens were obtained from consenting patients undergoing abdominoplasty. Under a sterile condition, the tissue was placed and washed in a 70% ethanol solution and cold PBS. Fat layers were removed from the tissue, leaving a millimeter of dermis and an intact epidermis. The tissue was then cut into 10 mm×10 mm pieces and placed on gels composed of keratinocyte media supplemented with Human Keratinocyte Growth Supplement purchased from Invitrogen, and mixed in a 1:1 ratio with 2% agarose. The samples were stored at 37° C. in 5% CO2.
ETA solutions were incubated on top of the skin for 4 hours. Each buffer condition was also done separately without the presence of ETA as controls. […] That is to say, Stratum Corneum layer was peeled off mechanically with sterile gauze.
Histological images were taken with an inverted microscope.

[5] = tested on: Stratum Corneum, human skin explant model; assay: ETA desquamation after acetone and/or thioglycolate cream pre-treatment (Example 4)
Excerpt: FIG. 7 panels a-d depict decreased desquamation time for the removal of S.C. by ETA on the human skin specimen(s) following thioglycolate cream pre-treatment. Samples either received no treatment (panel a), ETA only (panel b), treated with thioglycolate cream only (panel c), ETA and thioglycolate cream (panel d). The depictions are of live confocal imaging of skin. Images are focusing on the horizontal plane at the most superficial levels. Lighter areas depict areas where DAPI dye has entered the epidermis and staining on the Nuclei of the cells. […] Natural folds in skin surface produce “waves” of staining in these planar-focused live images. The waves of staining are seen in panel b, with about 20%-30% of the area stained, and about 90%-95% of the area stained in panel d (“unstained” regions in panel d are skin folds). However when S.C. is present (panels a and c), DAPI cannot penetrate cells, and is shielded from cellular uptake by the S.C., staining is seen to be less than about 10% in panels a and c.
In order to decrease the incubation time of ETA, the following conditions were additionally evaluated:
Studies were carried out in a human skin explant model using surgical abdominal skin specimens.
Lipid Extraction: The S.C. layer consists of lipids and therefore, acetone was selected as a pre-treatment to dissolve or at least disrupt the lipid structure of the S.C.
Protein Denaturation: The S.C. layer also contains keratin proteins. Keratins can be broken down by thioglycolate, which breaks down rigid disulfide bonds. Samples were pre-treated with thioglycolate cream to break down the keratin layer of the S.C. As a result, the incubation time of ETA was shortened (FIG. 7).
Combination Lipid Extraction and Protein Denaturation: With the pre-treatment of acetone and a thioglycolate cream, separation of S.C. started as early as 2 to 2.5 hours.

human skin explants [6] = assay: Injected versus topically applied ETA, damage after 24 hours (Example 6)
Description: FIG. 10 panels a-h depict the effect of injected and topically applied ETA in a series of concentrations between 5 and 1000 ug/mL after 24 hours.
Damage caused by intra-dermal injection of ETA was compared to normal control skin and topically applied ETA control. A very high concentration of ETA (500 μg/mL) was intra-dermally injected into human skin explants (prepared as described in Example 1) and observed after 24 hours. […] In contrast, methods of the invention topically apply ETA only to the outside surface of skin.

[7] = tested on: xenograft human skin in SCID mice; assay: Recovery of S.C. after ETA, serial confocal DAPI staining; format: in vivo
Excerpt: FIG. 11 panels a-i depict DAPI staining on nuclei in an S.C. removed area compared to control (intact S.C.), highlighting the recovery of the S.C. layer over time after the application of ETA on human xenografted skin on mice. […] Day 7-9 and 10-11 (panels e, f) show even less nuclei.
Regarding healing kinetics, using a xenograft human skin in SCID mice model, the healing of removed S.C. was completed within 2 weeks as determined by serial confocal observation of DAPI staining on xenograft skin. With confocal microscope and DAPI staining, the recovery of the S.C. can be observed, as described. DAPI is known to be a fluorescent stain that can pass through the cell membrane and bind strongly to A-T rich regions in DNA, thereby staining the nuclei of cells. With intact S.C., the signal from DAPI cannot be detected by confocal microscope due to the refraction of light against the S.C. as well as the limitation of the depth of light penetration. On the other hand, desquamated skin can produce DAPI signals within cells. DAPI can stain the nuclei of epidermis as long as epidermis remains desquamated. Under inhalation anesthesia, xenografted mouse was taped down on the observatory plates and the xenografted skin was imaged using confocal microscopy. DAPI signal was obtained at baseline and every other day after ETA-mediated desquamation occurred.

[8] = intra-dermally injected, ETA 500 μg/mL, 24 hours

## C=C[C@@]1(C)CC(=O)[C@]2(O)[C@@]3(C)[C@@H](O)CCC(C)(C)[C@@H]3[C@H](O)[C@H](OC(C)=O)[C@@]2(C)O1 [Forskolin]
Human skin explants [1]
  penetration of intact human skin: cannot, however, penetrate intact human skin

## human recombinant insulin: FITC tagged human recombinant insulin (5000 Da)
[2]
  skin permeability after removal of S.C. by ETA: substantially increased
[2]; toxin treated skin
  time to penetration of the dye: ≤ 6 h
  penetration of the dye at 12 hours: some dye penetration
  penetration of the dye at 24 hours: extensively into the dermis
[2]; toxin treated skin, listed as FITC-insulin
  penetration of the dye at 24 hours: deep penetration of the dye

## O=C(O)CO [glycololic acid, glycolic acid]
[3]; 20% for 1-3 minutes
  epidermal or dermal injury: epidermal damage and clefting of the dermal-epidermal junction (DEJ)
[3]
  injury by chemical peeling: uncontrolled or unavoidable additional injury to epidermis

## CCNc1cc2[s+]c3cc(N(CC)CC)ccc3nc2c2ccccc12.[Cl-] [EtNBS]
[2]
  skin permeability after removal of S.C. by ETA: substantially increased
[2]; toxin treated skin
  penetration of the dye at 12 hours: penetrating past the epidermis
  penetration of the dye at 24 hours: penetrated further

## O=C1OC2(c3ccc(O)cc3Oc3cc(O)ccc32)c2ccccc21 [fluorescein]
Human skin
  skin permeability, fluorescence in receptor compartment: increase in skin permeability

## CCN(CC)c1ccc2c(-c3ccc(S(=O)(=O)O)cc3S(=O)(=O)[O-])c3ccc(=[N+](CC)CC)cc-3oc2c1 [Sulforhodamine, sulforhodamine B]
Human skin
  skin permeability, fluorescence in receptor compartment: increase in skin permeability

## O=C(O)c1ccccc1O [salicylic acid]
[3]
  injury by chemical peeling: uncontrolled or unavoidable additional injury to epidermis
[3]; topical 30%
  epidermal or dermal injury: damage to the epidermis

B1: ETA: protease that cleaves the extracellular portion of desmoglein-1 (Dsg1); Staphylococcus aureus, SEQ ID NO: 01/02 (protein, listed as Staphylococcus aureus)
chain: MNNSKIISKVLLSLSLFTVGASAFVIQDELMQKNHAKAEVSAEEIKKHEEKWNKYYGVNAFNLPKELFSKVDEKDRQKYPYNTIGNVFVKGQTSATGVLIGKNTVLTNRHIAKFANGDPSKVSFRPSINTDDNGNTETPYGEYEVKEILQEPFGAGVDLALIRLKPDQNGVSLGDKISPAKIGTSNDLKDGDKLELIGYPFDHKVNQMHRSEIELTTLSRGLRYYGFTSVPGNSGSGIFNSNGELVGIHSSKVSHLDREHQINYGVGIGNY
[4]; 10 mM Tris buffer pH 8.0
  effect of buffer on desquamation speed: no effect
[4]; ETA 50 μg/mL
  time to remove the S.C.: ≤ 12 h
[4]; ETA 50 μg/mL, serial time points up to 12 hours
  S.C. removal, histology (FIG. 1 panel d): sub-corneal cleavage and the complete removal of the S.C.
[4]; ETA 1000 μg/mL, buffered pH 6.5 solution
  incubation time at which efficacy was achieved: about 3 hours
[4]; ETA between 5 and 25 μg/mL, topical
  time to desquamation of the Stratum Corneum: ≤ 24 h
[4]; ETA between 5 and 25 μg/mL, within 24 hours
  damage to the rest of the epidermis or the dermis: without damaging the rest of the epidermis or the dermis
[4]; pH 6.5
  time to completely remove the S.C.: 4 h
[4]; pH 6.5 PIPES buffer, 4 hours
  desquamation (FIG. 2 panel d): total desquamation
[4]; pH 7.4 HEPES buffer, 4 hours
  desquamation (FIG. 2 panel b): some desquamation
[5]; ETA 50 μg/mL, without pre-treatment
  incubation usually expected: 4 to 8 h
[5]; ETA and thioglycolate cream
  area stained by DAPI (FIG. 7 panel d): 90%-95%
[5]; ETA only
  area stained by DAPI (FIG. 7 panel b): 20%-30%
[5]; acetone pre-treatment
  change of reaction time after ETA application: slight decrease in reaction time
[5]; pre-treatment of acetone and a thioglycolate cream
  time at which separation of S.C. started: 2 to 2.5 h
[5]; pre-treatment of acetone and a thioglycolate cream, ETA 50 μg/mL
  time of almost complete removal of S.C.: 3 h
[5]; thioglycolate cream pre-treatment
  change of incubation time of ETA: shortened
Human skin explants [6]; [8]
  damage to the epidermis or underlying dermis: no serious damage
  exfoliation: more wide spread exfoliation
Human skin explants [6]; intradermal injection, ETA 5 μg/mL, 24 hours
  histological effect: desquamation
Human skin explants [6]; intradermal injection, ETA 50 μg/mL, 24 hours
  histological effect: desquamation
Human skin explants [6]; intradermal injection, ETA 500 μg/mL, 24 hours
  histological effect: clefting at the dermal-epidermal junction (DEJ)
Human skin explants [6]; intradermal injection, ETA 1000 μg/mL, 24 hours
  histological effect: clefting at the dermal-epidermal junction (DEJ)
Human skin explants [6]; topical ETA 50 μg/mL for 24 hours
  effect compared with intra-dermal injection: much more modest effect
Human skin explants [6]; topical application, ETA 5 μg/mL, 24 hours
  histological effect: no change
Human skin explants [6]; topical application, ETA 50 μg/mL, 24 hours
  histological effect: desquamation
Human skin explants [6]; topical application, ETA 500 μg/mL, 24 hours
  histological effect: desquamation
Human skin explants [6]; topical application, ETA 1000 μg/mL, 24 hours
  histological effect: desquamation
[7]; Day 12 after ETA
  DAPI staining of nuclei: no nuclei
[7]; Days 1-3 after ETA
  DAPI staining of nuclei: significant DAPI staining
[7]; after ETA-mediated desquamation
  time to completed healing of removed S.C.: ≤ 2 weeks
[7]; after application of ETA
  re-formation of intact Stratum Corneum complete: ≤ 15 days
[3]; controlled removal of S.C. using ETA
  epidermal or dermal injury: no epidermal or dermal injury
